The supplement of paper PMC10567573

B1: DVL3 (parent)
chain: SDVVDWLYHNVEGFTDRREARKYA

Variants of: B1
Assay: protein stability index of a GFP-peptide fusion (GPS, HEK-293T) (PSI 1-6); higher = more stable
Settings: c terminus: a fixed tail appended
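Also: lentivirally expressed fusions sorted by FACS into six bins by GFP to DsRed ratio, PSI derived from sequencing read proportions per bin multiplied by bin number.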

Protein stability index, by site and new letter:
S1: P 2.15; I 2
H9: I 2.09; Y 3.21; D 3.66; G 3.32; N 3.83; L 2.55; C 2.13; R 2.8; K 2.67; V 2.16; S 2.94; Q 3.11; F 2.14; M 2.79; P 4; T 2.67; A 2.37; W 2.42
V3: P 4.24; F 2.07; I 2.98; L 3.15; N 4.22; C 3.69; W 2.04; S 3.44; R 3.95; A 3.98; E 5.17; T 4.13; H 3.39; Q 4.64; M 3.85; D 4.59; Y 3
Y8: I 2.39; W 2.31; P 4.51; S 3.56; G 4.25; K 3.83; Q 3.81; M 2.74; T 3.63; N 3.87; V 2.93; D 4.61; E 4.2; C 3.79; L 2.27
W6: S 4.76; F 2.9; R 4.79; V 4.58; T 4.54; M 3.82; H 4.21; A 4.58; P 4.86; Y 3.6; E 4.97; Q 4.22; D 4.75; N 4.95; K 4.38; I 4.13; C 3.81; G 4.32; L 4.35
N10: M 1.94; I 2.25; R 2.6; A 2.1; F 1.75; E 3.69; D 4.09; K 2.34; G 3.03; H 2.7; C 2.1; L 2; Q 2.91
